# From PMC5281607
# B1: TRPA1: tunicamycin 5 μg/ml, 24 h (protein)
# parent chain: MKRSLRKMWRPGEKKEPQGVVYEDVPDDTEDFKESLKVVFEGSAYGLQNFNKQKKLKRCDDMDTFFLHYAAAEGQIELMEKITRDSSLEVLHEMDDYGNTPLHCAVEKNQIESVKFLLSRGANPNLRNFNMMAPLHIAVQGMNNEVMKVLLEHRTIDVNLEGENGNTAVIIACTTNNSEALQILLKKGAKPCKSNKWGCFPIHQAAFSGSKECMEIILRFGEEHGYSRQLHINFMNNGKATPLHLAVQNGDLEMIKMCLDNGAQIDPVEKGRCTAIHFAATQGATEIVKLMISSYSGSVDIVNTTDGCHETMLHRASLFDHHELADYLISVGADINKIDSEGRSPLILATASASWNIVNLLLSKGAQVDIKDNFGRNFLHLTVQQPYGLKNLRPEFMQMQQIKELVMDEDNDGCTPLHYACRQGGPGSVNNLLGFNVSIHSKSKDKKSPLHFAASYGRINTCQRLLQDISDTRLLNEGDLHGMTPLHLAAKNGHDKVVQLLLKKGALFLSDHNGWTALHHASMGGYTQTMKVILDTNLKCTDRLDEDGNTALHFAAREGHAKAVALLLSHNADIVLNKQQASFLHLALHNKRKEVVLTIIRSKRWDECLKIFSHNSPGNKCPITEMIEYLPECMKVLLDFCMLHSTEDKSCRDYYIEYNFKYLQCPLEFTKKTPTQDVIYEPLTALNAMVQNNRIELLNHPVCKEYLLMKWLAYGFRAHMMNLGSYCLGLIPMTILVVNIKPGMAFNSTGIINETSDHSEILDTTNSYLIKTCMILVFLSSIFGYCKEAGQIFQQKRNYFMDISNVLEWIIYTTGIIFVLPLFVEIPAHLQWQCGAIAVYFYWMNFLLYLQRFENCGIFIVMLEVILKTLLRSTVVFIFLLLAFGLSFYILLNLQDPFSSPLLSIIQTFSMMLGDINYRESFLEPYLRNELAHPVLSFAQLVSFTIFVPIVLMNLLIGLAVGDIAEVQKHASLKRIAMQVELHTSLEKKLPLWFLRKVDQKSTIVYPNKPRSGGMLFHIFCFLFCTGEIRQEIPNADKSLEMEILKQKYRLKDLTFLLEKQHELIKLIIQKMEIISETEDDDSHCSFQDRFKKEQMEQRNSRWNTVLRAVKAKTHHLEP
# Test: whole-cell patch clamp, AITC amplitude and rectification
# Settings: glycan lost; control: vehicle-treated (untreated) cells
protein,measurement,value
B1,other: channel current,no change
